This passage reports Kd and t1/2 results from patent US20140242080A1 (Hoffmann-La Roche, published 2014).

Usually Kd stands for the equilibrium constant for the complex coming apart. A high value points to weaker binding.

Assay [1] has as its target T1, HuFcγRIIIa-V158-K6H6 (human, UniProt P08637 17-208, limits assumed).
T1 construct: His-tagged recombinant receptor captured by anti-Penta His antibody; also called human FcγRIIIa-V158; human FcγRIIIa
Put plainly: SPR Biacore T100, 25 C; receptor captured via anti-Penta His, construct as analyte; steady state. As for the experimental part:
(§1) For analyzing interaction of different Fc-variants with human FcγRIIIa-V158 and murine FcγRIV direct coupling of around 6,500 resonance units (RU) of the anti-Penta His antibody (Qiagen) is performed on a CM5 chip at pH 5.0 using the standard amine coupling kit (Biacore, Freiburg/Germany). HuFcγRIIIa-V158-K6H6 and muFcγRIV-aviHis-biotin are captured for 60 s at 4 and 10 nM respectively.
(§2) Constructs with different Fc-mutations are passed through the flow cells for 120 s at a concentration of 1000 nM with a flow rate of 30 μl/min. The dissociation is monitored for 220 s. Bulk refractive index differences are corrected for by subtracting the response obtained in a reference flow cell. […] Affinity for human FcγRIIIa-V158 and murine FcγRIV was determined for wild-type Fc using a concentration range from 500-4000 nM.
(§3) The steady state response was used to derive the dissociation constant KD by non-linear curve fitting of the Langmuir binding isotherm. Kinetic constants were derived using the Biacore T100 Evaluation Software (vAA, Biacore AB, Uppsala/Sweden), to fit rate equations for 1:1 Langmuir binding by numerical integration.
On the technique in general: In SPR one partner is held on a chip, and binding of the other changes the refractive index at the surface.

Assay [2] concerns the target T2, muFcγRIV-aviHis-biotin (murine, UniProt A0A0B4J1G0 21-203, Biotinylated at the avi tag (tag not included in the letters)).
T2 construct: Captured by anti-Penta His antibody; also called murine FcγRIV; not shown: exact C-terminal limit of the soluble construct
T2 sequence: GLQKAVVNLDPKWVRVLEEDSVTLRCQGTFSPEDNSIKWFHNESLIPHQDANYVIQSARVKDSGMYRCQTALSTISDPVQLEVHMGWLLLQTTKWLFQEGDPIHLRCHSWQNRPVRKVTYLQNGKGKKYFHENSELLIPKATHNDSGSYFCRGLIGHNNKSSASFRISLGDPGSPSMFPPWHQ
Described as above. The method, then:
as §1, §2, §3

In assay [3] the target is T2, muFcγRIV-aviHis-biotin. Description: SPR Biacore T100, 25 C; receptor captured via anti-Penta His, construct as analyte; kinetic. The method, then: as §1, §2, §3
In assay [4] the target is T1, HuFcγRIIIa-V158-K6H6. Description: SPR Biacore T100, 25 C; receptor captured via anti-Penta His, construct as analyte; kinetic, one concentration (1000 nM). As for the experimental part: as §1, §2
In assay [5] the target is T1, HuFcγRIIIa-V158-K6H6. Put plainly: SPR Biacore T100, 25 C; receptor captured via anti-Penta His, construct as analyte; kinetic, value in brackets not explained. As for the experimental part:
as §1, §2, §3

The target of assay [6] is T3, human CD3ε stalk-Fc (knob)-Avi/CD3δ-stalk-Fc(hole) (human).
T3 construct: also called Human CD3ε/CD3δ; recombinant CD3ε/CD3δ
Description: SPR Biacore T100, 25 C; TCB captured via anti-human Fab, antigen as analyte. As for the experimental part:
(§4) Surface plasmon resonance (SPR) experiments were performed on a Biacore T100 at 25° C. with HBS-EP as running buffer (0.01 M HEPES pH 7.4, 0.15 M NaCl, 3 mM EDTA, 0.005% Surfactant P20, Biacore, Freiburg/Germany).
(§5) Capture IgG was coupled to the sensorchip surface by direct immobilization of around 7,500 resonance units (RU) at pH 5.0 using the standard amine coupling kit (Biacore, Freiburg/Germany). […] Since the interaction with murine MCSP (SEQ ID NO: 380) was expected to be weak the concentration range for this antigen was chosen between 3.9 and 500 nM. The dissociation for all interactions was monitored for 120 s. Bulk refractive index differences were corrected for by subtracting the response obtained on a reference flow cell.
(§6) Kinetic constants were derived using the Biacore T200 Evaluation Software (vAA, Biacore AB, Uppsala/Sweden), to fit rate equations for 1:1 Langmuir binding by numerical integration. […] The half-life (t_{1/2}) of the interaction was calculated using following formula: t_{1/2}=ln 2/koff.

Assay [7] addresses T4, hu-MCSP(D3 domain)-avi-his (human, UniProt Q6UVK1 1582-2224).
T4 construct: Recombinant D3 domain with avi and his tags; also called human MCSP(D3 domain)-avi-his; Human MCSP D3
T4 sequence: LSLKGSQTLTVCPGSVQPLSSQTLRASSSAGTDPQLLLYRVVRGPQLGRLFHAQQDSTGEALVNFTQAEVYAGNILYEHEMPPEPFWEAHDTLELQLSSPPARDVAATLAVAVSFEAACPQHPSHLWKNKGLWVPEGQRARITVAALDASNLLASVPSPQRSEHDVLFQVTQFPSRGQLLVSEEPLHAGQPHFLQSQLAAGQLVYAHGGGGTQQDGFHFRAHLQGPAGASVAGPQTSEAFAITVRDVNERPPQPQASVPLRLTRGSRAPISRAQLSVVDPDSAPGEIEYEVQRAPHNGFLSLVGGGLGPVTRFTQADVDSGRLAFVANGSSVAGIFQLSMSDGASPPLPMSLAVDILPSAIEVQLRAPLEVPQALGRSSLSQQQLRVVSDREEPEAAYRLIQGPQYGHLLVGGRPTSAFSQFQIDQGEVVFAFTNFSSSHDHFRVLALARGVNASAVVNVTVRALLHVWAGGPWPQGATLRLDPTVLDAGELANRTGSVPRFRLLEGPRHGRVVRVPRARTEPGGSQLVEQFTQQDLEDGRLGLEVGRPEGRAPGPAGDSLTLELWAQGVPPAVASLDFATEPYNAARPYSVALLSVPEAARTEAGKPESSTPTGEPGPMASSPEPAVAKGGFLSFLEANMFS
The description is as above. The method, then:
as §4, §5, §6

In assay [8] the target is T5, cynomolgus MCSP D3 (cynomolgus, UniProt Q6UVK1 1582-2224 (human entry), limits assumed).
T5 construct: also called Cyno MCSP; cynomolgus homologue
T5 chain: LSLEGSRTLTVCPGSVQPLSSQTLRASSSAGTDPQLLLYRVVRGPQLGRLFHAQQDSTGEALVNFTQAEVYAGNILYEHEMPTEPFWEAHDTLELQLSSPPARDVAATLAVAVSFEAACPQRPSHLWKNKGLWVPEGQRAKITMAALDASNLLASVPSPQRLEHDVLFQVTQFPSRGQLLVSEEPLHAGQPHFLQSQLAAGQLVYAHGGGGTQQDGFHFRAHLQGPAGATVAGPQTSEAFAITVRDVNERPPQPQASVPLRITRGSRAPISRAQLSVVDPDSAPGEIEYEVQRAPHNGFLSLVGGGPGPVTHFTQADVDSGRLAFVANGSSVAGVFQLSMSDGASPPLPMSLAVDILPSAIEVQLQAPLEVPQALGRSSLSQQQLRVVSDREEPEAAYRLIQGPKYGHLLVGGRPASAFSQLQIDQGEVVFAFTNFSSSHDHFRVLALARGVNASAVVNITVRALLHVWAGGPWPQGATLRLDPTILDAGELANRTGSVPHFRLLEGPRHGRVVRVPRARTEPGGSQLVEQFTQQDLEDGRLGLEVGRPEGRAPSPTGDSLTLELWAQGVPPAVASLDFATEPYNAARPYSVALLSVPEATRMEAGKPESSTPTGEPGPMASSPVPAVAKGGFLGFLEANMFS
The description is as above. As for the experimental part:
as §4, §5, §6

In the next assay the target is T6, murine MCSP D3 (murine, UniProt Q8VHY0 1587-2218, limits assumed).
T6 construct: also called recombinant murine MCSP D3
T6 sequence: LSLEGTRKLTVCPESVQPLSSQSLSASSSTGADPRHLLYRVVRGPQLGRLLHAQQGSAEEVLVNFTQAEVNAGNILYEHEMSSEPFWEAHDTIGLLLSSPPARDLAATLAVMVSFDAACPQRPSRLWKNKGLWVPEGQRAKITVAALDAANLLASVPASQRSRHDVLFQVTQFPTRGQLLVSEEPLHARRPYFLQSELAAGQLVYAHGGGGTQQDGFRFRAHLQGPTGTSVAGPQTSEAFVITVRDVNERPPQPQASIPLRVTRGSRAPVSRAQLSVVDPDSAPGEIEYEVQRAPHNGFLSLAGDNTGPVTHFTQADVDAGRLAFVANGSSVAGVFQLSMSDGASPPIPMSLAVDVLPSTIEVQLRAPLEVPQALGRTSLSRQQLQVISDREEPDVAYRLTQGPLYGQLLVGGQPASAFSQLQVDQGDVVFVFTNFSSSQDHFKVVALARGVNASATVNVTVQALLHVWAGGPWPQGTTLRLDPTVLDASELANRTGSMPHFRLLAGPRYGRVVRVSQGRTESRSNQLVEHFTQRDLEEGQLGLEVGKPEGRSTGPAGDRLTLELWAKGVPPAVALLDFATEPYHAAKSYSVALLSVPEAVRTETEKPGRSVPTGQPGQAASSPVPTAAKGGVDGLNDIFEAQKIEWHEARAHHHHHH
Put plainly: SPR Biacore T100, 25 C; TCB captured via anti-human Fab, antigen as analyte; steady state. The method, then: as §5, §6

Assay [9] concerns the target T3, human CD3ε stalk-Fc …. Description: SPR Biacore T100, 25 C; t1/2 = ln 2/koff. As for the experimental part:
as §5, §6

Assay [10] addresses T4, hu-MCSP(D3 domain)-avi-his. Put plainly: SPR Biacore T100, 25 C; t1/2 = ln 2/koff. As for the experimental part:
as §5, §6

Assay [11] addresses T5, cynomolgus MCSP D3. Put plainly: SPR Biacore T100, 25 C; t1/2 = ln 2/koff. As for the experimental part: as §5, §6

T1 sequence (P08637 17-208 F176V limits assumed): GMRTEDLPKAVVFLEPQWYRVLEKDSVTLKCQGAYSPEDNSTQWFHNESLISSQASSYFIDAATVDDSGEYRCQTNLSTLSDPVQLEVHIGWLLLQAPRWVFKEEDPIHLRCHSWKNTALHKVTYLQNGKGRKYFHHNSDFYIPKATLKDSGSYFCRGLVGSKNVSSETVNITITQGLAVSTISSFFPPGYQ
T3 sequence (chain, as listed by the source mutant limits assumed, chain 1 of 2): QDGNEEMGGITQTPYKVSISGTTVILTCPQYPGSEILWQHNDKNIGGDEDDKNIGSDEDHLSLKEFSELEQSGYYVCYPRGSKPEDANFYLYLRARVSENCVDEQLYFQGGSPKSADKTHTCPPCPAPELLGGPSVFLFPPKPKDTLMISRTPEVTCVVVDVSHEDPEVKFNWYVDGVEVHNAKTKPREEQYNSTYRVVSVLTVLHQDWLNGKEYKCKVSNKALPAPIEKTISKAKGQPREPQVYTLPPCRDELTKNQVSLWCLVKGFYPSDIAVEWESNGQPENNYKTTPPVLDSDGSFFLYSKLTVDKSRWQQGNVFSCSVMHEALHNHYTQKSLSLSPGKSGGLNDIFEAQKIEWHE
T3 sequence (chain, as listed by the source mutant limits assumed, chain 2 of 2): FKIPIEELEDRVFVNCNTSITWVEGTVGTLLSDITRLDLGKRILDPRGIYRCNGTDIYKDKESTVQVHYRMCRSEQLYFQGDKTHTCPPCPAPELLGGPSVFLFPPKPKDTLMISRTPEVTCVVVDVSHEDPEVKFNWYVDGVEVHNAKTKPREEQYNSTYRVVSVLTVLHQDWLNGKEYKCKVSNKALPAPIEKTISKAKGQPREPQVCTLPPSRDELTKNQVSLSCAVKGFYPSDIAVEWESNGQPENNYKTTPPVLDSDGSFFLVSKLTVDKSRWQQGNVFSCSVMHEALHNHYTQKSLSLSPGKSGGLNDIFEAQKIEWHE

B1: “2+1 IgG scFab, wt” (anti-MCSP/anti-huCD3) (bispecific antibody)
chain 1: DIVLTQSPSSLSASLGDRVTISCSASQGIRNYLNWYQQRPDGTVKLLIYYTSSLHSGVPSRFSGSGSGTDYSLTISNLEPEDIATYYCQQYSKLPWTFGGGTKLEIKRTVAAPSVFIFPPSDEQLKSGTASVVCLLNNFYPREAKVQWKVDNALQSGNSQESVTEQDSKDSTYSLSSTLTLSKADYEKHKVYACEVTHQGLSSPVTKSFNRGEC
chain 2: not shown
chain 3: not shown
notes: Wild-type Fc domain; also called Fc-wt; copies: 2 + 1 + 1
For the molecule B1, the equilibrium dissociation constant (Kd) with HuFcγRIIIa-V158-K6H6 [1] is 3470 nM; in the assay with muFcγRIV-aviHis-biotin [2], 1500 nM; with muFcγRIV-aviHis-biotin [3], 576 nM; with HuFcγRIIIa-V158-K6H6 [4], 600 nM; in the assay with HuFcγRIIIa-V158-K6H6 [5] it was 1200 nM.

B2: MCSP TCB (2+1 Crossfab-IgG P329G LALA inverted) (bispecific antibody)
light 1: not shown
light 2: QAVVTQEPSLTVSPGGTVTLTCGSSTGAVTTSNYANWVQEKPGQAFRGLIGGTNKRAPGTPARFSGSLLGGKAALTLSGAQPEDEAEYYCALWYSNLWVFGGGTKLTVLSSASTKGPSVFPLAPSSKSTSGGTAALGCLVKDYFPEPVTVSWNSGALTSGVHTFPAVLQSSGLYSLSSVVTVPSSSLGTQTYICNVNHKPSNTKVDKKVEPKSC
heavy 1: not shown
heavy 2: QVQLQESGPGLVKPSQTLSLTCTVSGGSITSGYYWNWIRQHPGKGLEWIGYITFDGSNNYNPSLKSRVTISRDTSKNQFSLKLSSVTAADTAVYYCADFDYWGQGTLVTVSSASTKGPSVFPLAPSSKSTSGGTAALGCLVKDYFPEPVTVSWNSGALTSGVHTFPAVLQSSGLYSLSSVVTVPSSSLGTQTYICNVNHKPSNTKVDKKVEPKSCDKTHTCPPCPAPEAAGGPSVFLFPPKPKDTLMISRTPEVTCVVVDVSHEDPEVKFNWYVDGVEVHNAKTKPREEQYNSTYRVVSVLTVLHQDWLNGKEYKCKVSNKALGAPIEKTISKAKGQPREPQVCTLPPSRDELTKNQVSLSCAVKGFYPSDIAVEWESNGQPENNYKTTPPVLDSDGSFFLVSKLTVDKSRWQQGNVFSCSVMHEALHNHYTQKSLSLSPGK
notes: also called MCSP TCB antibody; MCSP CD3 bispecific antibody
As to B2, the Kd in [6] was determined as 78.7 nM; in [7] it was 0.15 nM; with cynomolgus MCSP D3 [8] it was 0.12 nM; with murine MCSP D3, 1570 nM. Further, the t1/2 in assay [9] came to 2.9 min; in assay [10] it was 3.42 h; with cynomolgus MCSP D3 [11] it was 4.38 h.
